Reference: patent US20250243279A1 (published 2025)

Columns and labels:
Test in all cases: Carterra LSA SPR
[1] = molecular target: 1B11-2
[2] = molecular target: 1D8
[3] = molecular target: 1H7
[4] = molecular target: 1A2
[5] = molecular target: 1E1
[6] = molecular target: 1D9
[7] = molecular target: 1B6
[8] = molecular target: 1C8
[9] = molecular target: 1D7

B1: huMICA (ligand)
chain: EPHSLRYNLTVLSWDGSVQSGFLTEVHLDGQPFLRCDRQKCRAKPQGQWAEDVLGNKTWDRETRDLTGNGKDLRMTLAHIKDQKEGLHSLQEIRVCEIHEDNSTRSSQHFYYDGELFLSQNLETKEWTMPQSSRAQTLAMNVRNFLKEDAMKTKTHYHAMHADCLQELRRYLKSGVVLRRTVPPMVNVTRSEASEGNITVTCRASGFYPWNITLSWRQDGVSLSHDTQQWGDVLPDGNGTYQTWVATRICQGEEQRFTCYMEHSGNHSTHPVPSGKVLVLQSHWQTFHVSAVAAAAIFVIIIFYVRCCKKKTSAAEGPELVSLQVLDQHPVGTSDHRDATQLGFQPLMSDLGSTGSTEGA
- Kd [1]: 2.83 nM
- Kd [2]: 46.7 nM
- Kd [3]: 75 nM
- Kd [4]: 2.13 nM
- Kd [5]: 12.2 nM
- Kd [6]: 12.8 nM
- Kd [7]: 5.85 nM
- Kd [8]: 20.6 nM
- Kd [9]: 0.344 nM
